Columns and labels:
CDC42Hs [1] = target: T1, CDC42Hs (human, UniProt P60953)
CDC42Hs [2] = target: T1, CDC42Hs; experiment: inferred from the dose response of GDI activity; reference rhoGDI
[3] = target: rac 1 (Homo sapiens (Human)) (UniProt P63000); experiment: as above
CDC42Hs [4] = target: T1, CDC42Hs; experiment: cell-based or functional assay
CDC42Hs (human) [5] = target: CDC42Hs (human) (UniProt P60953)
CDC42Hs (human) [6] = target: CDC42Hs (human) (UniProt P60953); remark: listed apart in the source
CDC42Hs (human) [7] = target: CDC42Hs (human) (UniProt P60953); experiment: inferred from the dose response of GDI activity; reference rhoGDI

Molecule: human D4 protein
- GDI activity (times more concentration than rhoGDI) (CDC42Hs [1]): > 10
- times lower binding than rhoGDI (CDC42Hs [2]): 30 to 40 times
- times lower binding than rhoGDI [3]: 30 to 40 times

B1: GST-LD4 (glutathione-S-transferase fusion protein of LD4) (other)
chain: MTEKAPEPHVEEDDDDELDSKLNYKPPPQKSLKELQEMDKDDESLIKYKKTLLGDGPVVTDPKAPNVVVTRLTLVCESAPGPITMDLTGDLEALKKETIVLKEGSEYRVKIHFKVNRDIVSGLKYVQHTYRTGVKVDKATFMVGSYGPRPEEYEFLTPVEEAPKGMLAQDTYHNKSFFTDDDKQDHLSWEWNLSIKKEWTE
- apparent EC50, GDP dissociation inhibition assay (CDC42Hs [4]): 7 to 8 µM

B2: GST-mD4 (glutathione-S-transferase fusion protein of murine D4) (protein)
chain: MTEKDAQPQLEEADDDLDSKLNYKPPPQKSLKELQEMDKDDESLTKYKKTLLGDVPVVADPTVPNVTVTRLSLVCDSAPGPITMDLTGDLEALKKDTFVLKEGIEYRVKINFKVNKDIVSGLKYVQHTYRTGMRVDKATFMVGSYGPRPEEYEFLTPVEEAPKGMLARGTYHNKSFFTDDDKQDHLTWEWNLAIKKDWTEZ
- GDI activity (times more concentration than rhoGDI) (CDC42Hs (human) [5]): > 10
- apparent EC50, GDP dissociation inhibition assay (CDC42Hs (human) [6]): 7 to 8 µM
- times lower binding than rhoGDI (CDC42Hs (human) [7]): 30 to 40 times

B3: GST-GN LC (chimera of the entire rho GDI sequence except that the carboxyl terminal 33 amino acids were from LD4) (other)
chain: MAEQEPTAEQLAQIAAENEEDEHSVNYKPPAQKSIQEIQELDKDDESLRKYKEALLGRVAVSADPNVPNVVVTGLTLVCSSAPGPLELDLTGDLESFKKQSFVLKEGVEYRIKISFRVNREIVSGMKYIQHTYRKGVKIDKTDYMVGSYGPRAEEYEFLTPVEEAPKGMLAQDTYHNKSFFTDDDKQDHLSWEWNLSIKKEWTE
- GDP dissociation inhibition assay (CDC42Hs [4]): ≥ 20 fold less effective than rho GDI

— US5767073, “D4 gene and methods of use thereof” (Beth Israel Hospital Association, dated 1998)
